Results reported in the DeepSol protein solubility set.

Experiment: soluble on expression in E. coli; label from the status in PepcDB or PDB records

| Sequence | soluble on expression in E. coli |
| --- | --- |
| MKRYVFMLSDGTGITAETLGNSLITQFENIQFEKITIPYIDSTHRAESVVLRINQCFSEQGTKPLVFMTLVDPEIRQAIKKAHACVFDLFSIFIGPLENELEEKSSYTVGRTHGVANVKSYSHRIEAIDFALSHDDGIKTRGYDKADIILIGVSRCGKTPSCLYMALQYGILAANYPFTEEDLVGFRLPEVLRPYKQKLFGLTIDAQRLQQIRSERRPNSKYASAEQCRLEVTEVEAMYQRENIPYINSTKYSIEEISTKVLAIAGLQRKILEHHHHHH | not soluble |
| GMVYVDPDRFDELVAEALDGIPEEFARAMRNVAVFVEDEPDDPELLGLYVGIPLTERTTAYGGVLPDRIIIYRNTICALCETESEVIDEVRKTVVHEIAHHFGIDDERLHELGY | soluble |
| MGSDKIHHHHHHMISMTQNNVEKWGTYEITLKGKAEGNPFTDVEIKAVFTSEAGDSFEVEGFYDGEDTFKIRFMPNRTGLWKYEVRSDIKDLDGMKGEFLCVDPSEGNHGPVRVCNTYHFCYEDGTPYHPFGTTLYAWVHQREELIQQTLESLRNSPFNKVRMCVFPKYYAYNREEPPMLPMSWREEDGRYQVEFNVKFFQHFERLVKELMDMGIEADVILFHPYDKWGFCSMPEEVDKAYLRYLIARISSYRNVWWSMANEYDLIKPQKDWDGYFHFIVEKDPYNHLRSVHQCFKFYDHTKPWITHASIQWQGSLRSWSGEPEIDIGINLIPKWREMYKKPVIIDECGYEGNIEYGWGNLPPQEMMNRFWEGVTSGGYVTHGETYYSEDEVLWWSKGGRLKGESPKRIAFLRTIIEEAPPFLKPIKLDPMMDWDVHCIGKEGEYYLIYFDINRPVKRTLKLPEGKYRVDLVDCWETEIHSLGIFQGQVVIRLPGKSYVALRIQKMENNDDWIILREDAKL | not soluble |
| MAQTLAQTKQISQSHTFDVSQSHHKTPDDTNSHSVIYSTQNLDLWYGENHALQNINLDIYENQITAIIGPSGCGKSTYIKTLNRMVELVPSVKTAGKILYRDQDIFDQKYSKEQLRTNVGMVFQQPNPFPKSIYDNITYGPKIHGIKNKKVLDEIVEKSLRGAAIWDELKDRLHTNAYSLSGGQQQRVCIARCLAIEPEVILMDEPTSALDPISTLRVEELVQELKEKYTIIMVTHNMQQAARVSDKTAFFLNGYVNEYDDTDKIFSNPSNKKTEDYISGRFG | not soluble |
| GAHTVDKRFGMDFKEIELIGSGGFGQVFKAKHRIDGKTYVIKRVKYNNEKAEREVKALAKLDHVNIVHYNGCWDGFDYDPETSSKNSSRSKTKCLFIQMEFCDKGTLEQWIEKRRGEKLDKVLALELFEQITKGVDYIHSKKLINRDLKPSNIFLVDTKQVKIGDFGLVTSLKNDGKRTRSKGTLRYMSPEQISSQDYGKEVDLYALGLILAELLHVCDTAFETSKFFTDLRDGIISDIFDKKEKTLLQKLLSKKPEDRPNTSEILRTLTVWKKSPEKNERHTA | soluble |
| MGSDKIHHHHHHMSKYDVSISVIMGVYNQNDEKVLREAVDSILNQTFKDFEFIIYDDGSQPDAALILEKIKKIDPRIVLIGQEKNHGLAFSLNACIEQARGKYIARMDADDISDPNRLKVQYDFLEKNPQYSWCGCNARLLDENGIWGTREMPEAPAEKDYLKYSPYIHPTVMYRASLFEETDGYKVSEETLLCEDYEIFMRLRQMGKRGYNIQETLFTYREDSDSYRRRDFKRGINEAKVRFENFNKLHVLFPTGWVYVFRPIIACLVPREMIYILKRMKTRKKPWKKELESELIITGK | not soluble |
| MGSDKIHHHHHHMSEIQLPSQFESFAEARKQGFIAVKNLKEQGKKVAGVFCTYAPVELVLAAGAVPVGLCAFSDETIPEAEKVLPRNLCPLVKSSYGFAITDKCPYMFFSDLMIGETTCDGKKKMYELLGEFKNLHVMQLPQTAAAEASQELWYQEVLRLKDRIEQDFGVTITEEGIKNAIKVKNEERKLLKEFYELSKSCPPPITGAEQLKVLYGSQFKFDPEAKNREIRETIDKVKADQAKGVENVSPAAKRILITGCPLAGVTEKVVRAIEESGGVVVAYENCIGVKPVERLVDETIDPYKALADRYLQIGCSVMTPNPNRLDLLSRLVREFKVDGVVEMTLQACHTYNLETTQIRKHMQKEDMPFISVETDYSTSDAAQLKTRLAAFIEMLS | not soluble |
